# Measurements published in EP4592317A1 (ABlink Biotech Co., Ltd., dated 2025).
# Values joined by “and” are separate entries in the source; they are usually repeats but may differ in a detail not shown here. Equal entries are not always repeated.
# T1: Mouse 4-1BB extracellular region recombinant protein (his-tag) (mouse, UniProt P20334 24-187)
# T1 construct: extracellular domain; also called Mouse4-1BB, his-tag; not shown: his-tag
# T1 sequence (looked up): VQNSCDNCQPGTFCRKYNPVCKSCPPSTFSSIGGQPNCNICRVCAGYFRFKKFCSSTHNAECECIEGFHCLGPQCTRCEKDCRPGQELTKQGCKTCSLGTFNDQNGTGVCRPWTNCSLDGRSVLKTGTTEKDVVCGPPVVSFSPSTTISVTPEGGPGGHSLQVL
# B1: 137-39 VHH-hFc recombinant antibody (Fc fusion)
# chain: QVQLVESGGGLVHVGESLTLSCVISGGSSNLYGIGWYRQAPGQERKLVAVLHNEHTTKYLDSVKGRFFVSGDNAKNTLYLHMNNVKVEDTAVYYCNSASGTLAGTGYFASVGPWGQGTLVTVSS
# notes: VHH fragment inserted into vector pFclG with human IgG1 Fc tag, expressed in HEK293F; Preparation had non-specific bands, purity about 30%; not shown: human IgG1 Fc tag of the eukaryotic expression vector pFclG
# B2: 137-12 VHH-hFc recombinant antibody (Fc fusion)
# chain: QVQLVESGGGLVHPGGSLRLSCAASGFTLDDSAIGWFRQAPGKEREGVSCRSRSGYMTKYADSVKGRFTISRYNANNTMYLQMNSLKPEDTAVYYCATTRRGYCSGYETKGVDYWGQGIQVTVSS
# notes: VHH fragment inserted into vector pFclG with human IgG1 Fc tag, expressed in HEK293F; not shown: human IgG1 Fc tag of the eukaryotic expression vector pFclG
# B3: 137-1 VHH-hFc recombinant antibody (Fc fusion)
# chain: QVQLVESGGGLVQPGGSLRLSCVASGFVFSTVTMGWGRQVPGKEFEWVSGVSSEGITDYADSVKGRFTISRDNAKNTVYLEMNSLKSEDTAEYYCLIGGRWSFGTWGQGTQVTVSS
# notes: also called CD137-1; not shown: human IgG1 Fc tag of the eukaryotic expression vector pFclG
# B4: 137-36 VHH-hFc recombinant antibody (Fc fusion)
# chain: QVQLVESGGGLVQTGGSLTLSCVASGRRFEAYTIGWLRQAPGDLREGVGCIFGGTTFTGYDDSVKGRFTISRDTAKNTVYLRMNNLTSEDTATYYCAAEGRPGQIKGQHGCLTPSWYNYKGQGTQVTVSS
# notes: as for B2
# B5: 137-16 VHH-hFc recombinant antibody (Fc fusion)
# chain: EVQLVESGGGLVQAGASLTLSCVISGRTFSSYAMGWYRQAPGKERAFVGTITWNNDIIYSDSVKGRFTISTDDGKNTMYLQMNNLKPEDTAVYYCAAYSVPYGDFCTLNYDLMDYWGKGTLVTVSS
# notes: VHH fragment inserted into vector pFclG with human IgG1 Fc tag, expressed in HEK293F; Preparation had non-specific bands, purity >70%; also called CD137-16; not shown: human IgG1 Fc tag of the eukaryotic expression vector pFclG
# B6: 137-7 VHH-hFc recombinant antibody (Fc fusion)
# chain: QVQLVESGGGLVQPGGSLRLSCAASGFTLDSYAIAWFRQAPGKEREGVSCITSSGGSTNYADSVKGRFTISRDGAKNTVYLQLNSLKPEDTAIYYCAAFHRATCVILGEYDYWGQGTQVTVSS
# notes: VHH fragment inserted into vector pFclG with human IgG1 Fc tag, expressed in HEK293F; also called CD137-7; not shown: human IgG1 Fc tag of the eukaryotic expression vector pFclG
# Target: T2, Human 4-1BB extracellular domain recombinant protein (his-tag) (human, UniProt Q07011 24-186)
# T2 construct: extracellular domain; also called Human4-1BB, his-tag; human 4-1BB extracellular region recombinant protein; not shown: his-tag
# Assay: ELISA, coated human 4-1BB-his 200 ng/well; antibody 0.37 µg/ml
row,absorbance at 450 nm,Binder
1,0.458,B1
2,0.341,B2
3,3.97,B3
4,0.347,B4
5,1.58,B5

# Target: T3, Monkey 4-1BB extracellular region recombinant protein (his-tag) (monkey)
# T3 construct: extracellular domain; also called Monkey4-1BB, his-tag
# Assay: ELISA, coated monkey 4-1BB-his 200 ng/well; antibody 0.014 µg/ml
row,absorbance at 450 nm,Binder
1,0.292,B1
2,0.385,B2
3,0.621,B3
4,0.581,B6
5,0.333,B4
6,0.447,B5

# Target: T2, Human 4-1BB extracellular domain …
# Assay: ELISA, coated human 4-1BB-his 200 ng/well; antibody 1.11 µg/ml
row,absorbance at 450 nm,Binder
1,0.62,B1
2,0.376,B2
3,0.414,B4
4,3.52,B5

# Target: T1, Mouse 4-1BB extracellular region …
# Assay: ELISA, coated mouse 4-1BB-his 200 ng/well; antibody 0.014 µg/ml
row,absorbance at 450 nm,Binder
1,0.199,B3
2,0.187,B6

# Target: T2, Human 4-1BB extracellular domain …
# Assay: ELISA, coated human 4-1BB-his 200 ng/well; antibody 0.014 µg/ml
row,absorbance at 450 nm,Binder
1,0.521,B1
2,0.395,B2
3,0.612,B3
4,0.589,B6
5,0.413,B4
6,0.41,B5

# Target: T2, Human 4-1BB extracellular domain …
# Assay: ELISA, coated human 4-1BB-his 200 ng/well; antibody 10.0 µg/ml
row,absorbance at 450 nm,Binder
1,1.45,B1
2,0.432,B2
3,0.48,B4

# Target: T1, Mouse 4-1BB extracellular region …
# Assay: ELISA, coated mouse 4-1BB-his 200 ng/well; antibody 1.11 µg/ml
row,absorbance at 450 nm,Binder
1,0.207,B3
2,0.191,B6

# Target: T3, Monkey 4-1BB extracellular region …
# Assay: ELISA, coated monkey 4-1BB-his 200 ng/well; antibody 10.0 µg/ml
row,absorbance at 450 nm,Binder
1,0.405,B1
2,1.07,B2
3,1.91,B4

# Target: T3, Monkey 4-1BB extracellular region …
# Assay: ELISA, coated monkey 4-1BB-his 200 ng/well; antibody 0.12 µg/ml
row,absorbance at 450 nm,Binder
1,0.306,B1
2,0.376,B2
3,1.85,B3
4,1.54,B6
5,0.372,B4
6,1.17,B5

# Target: T2, Human 4-1BB extracellular domain …
# Assay: ELISA, coated human 4-1BB-his 200 ng/well; antibody 0.12 µg/ml
row,absorbance at 450 nm,Binder
1,0.461,B1
2,0.334,B2
3,1.5,B3
4,2.37,B6
5,0.383,B4
6,0.704,B5

# Target: T3, Monkey 4-1BB extracellular region …
# Assay: ELISA, coated monkey 4-1BB-his 200 ng/well; antibody 0.37 µg/ml
row,absorbance at 450 nm,Binder
1,0.251,B1
2,0.343,B2
3,3.97,B3
4,3.19,B6
5,0.276,B4
6,2.79,B5

# Target: T3, Monkey 4-1BB extracellular region …
# Assay: ELISA, coated monkey 4-1BB-his 200 ng/well; antibody 1.11 µg/ml
row,absorbance at 450 nm,Binder
1,0.286,B1
2,0.423,B2
3,0.456,B4

# Target: T1, Mouse 4-1BB extracellular region …
# Assay: ELISA, coated mouse 4-1BB-his 200 ng/well; antibody 0.37 µg/ml
row,absorbance at 450 nm,Binder
1,0.269,B3
2,0.201,B6

# Target: T3, Monkey 4-1BB extracellular region …
# Assay: ELISA, coated monkey 4-1BB-his 200 ng/well; antibody 0 µg/ml (background well)
row,absorbance at 450 nm,Binder
1,0.041,B1
2,0.058,B2
3,0.077,B3
4,0.055,B6
5,0.041,B4
6,0.043,B5

# Target: T2, Human 4-1BB extracellular domain …
# Assay: ELISA, coated human 4-1BB-his 200 ng/well
row,EC50,Binder
1,6.04 µg/mL and 75.6 nM,B1
2,6.3e-05 µg/mL and 0.001 nM,B2
3,0.138 µg/mL and 1.73 nM,B3
4,0.09 µg/mL and 1.12 nM,B6
5,0.001 µg/mL and 0.011 nM,B4
6,0.536 µg/mL and 6.7 nM,B5

# Target: T2, Human 4-1BB extracellular domain …
# Assay: ELISA, coated human 4-1BB-his 200 ng/well; antibody 0 µg/ml (background well)
row,absorbance at 450 nm,Binder
1,0.128,B1
2,0.087,B2
3,0.093,B3
4,0.081,B6
5,0.112,B4
6,0.096,B5

# Target: T1, Mouse 4-1BB extracellular region …
# Assay: ELISA, coated mouse 4-1BB his-tag 200 ng/well
row,binding result,Binder
1,no binding (tested: 0.014-10 µg/mL),B3
2,no binding (tested: 0.014-10 µg/mL),B6

# Target: T2, Human 4-1BB extracellular domain …
# Assay: ELISA, coated human 4-1BB-his 200 ng/well; antibody 0.041 µg/ml
row,absorbance at 450 nm,Binder
1,0.477,B1
2,0.355,B2
3,0.754,B3
4,0.963,B6
5,0.372,B4
6,0.419,B5

# Target: T1, Mouse 4-1BB extracellular region …
# Assay: ELISA, coated mouse 4-1BB-his 200 ng/well; antibody 0 µg/ml (background well)
row,absorbance at 450 nm,Binder
1,0.24,B3
2,0.209,B6

# Target: T3, Monkey 4-1BB extracellular region …
# Assay: ELISA, coated monkey 4-1BB-his 200 ng/well
row,EC50,Binder
1,0.001 µg/mL and 0.012 nM,B1
2,10.3 µg/mL and 128 nM,B2
3,0.113 µg/mL and 1.41 nM,B3
4,0.17 µg/mL and 2.12 nM,B6
5,51.9 µg/mL and 649 nM,B4
6,0.234 µg/mL and 2.93 nM,B5

# Target: T1, Mouse 4-1BB extracellular region …
# Assay: ELISA, coated mouse 4-1BB-his 200 ng/well; antibody 0.12 µg/ml
row,absorbance at 450 nm,Binder
1,0.184,B3
2,0.166,B6

# Target: T2, Human 4-1BB extracellular domain …
# Assay: SPR (Biacore 8K), VHH-hFc captured on Protein A chip, human 4-1BB-his as analyte, 25°C, 1:1 fit
Kd,koff,kon,Binder
3.91 nM,0.00916 s⁻¹,2.34e+06 M⁻¹ s⁻¹,B3
38 nM,0.0298 s⁻¹,783000 M⁻¹ s⁻¹,B6
33.3 nM,0.00274 s⁻¹,82200 M⁻¹ s⁻¹,B5

# Target: T1, Mouse 4-1BB extracellular region …
# Assay: ELISA, coated mouse 4-1BB-his 200 ng/well; antibody 0.041 µg/ml
row,absorbance at 450 nm,Binder
1,0.202,B3
2,0.18,B6

# Target: T3, Monkey 4-1BB extracellular region …
# Assay: ELISA, coated monkey 4-1BB-his 200 ng/well; antibody 3.33 µg/ml
row,absorbance at 450 nm,Binder
1,0.342,B1
2,0.679,B2
3,0.879,B4

# Target: T3, Monkey 4-1BB extracellular region …
# Assay: ELISA, coated monkey 4-1BB-his 200 ng/well; antibody 0.041 µg/ml
row,absorbance at 450 nm,Binder
1,0.387,B1
2,0.37,B2
3,0.971,B3
4,0.794,B6
5,0.354,B4
6,0.581,B5

# Target: T2, Human 4-1BB extracellular domain …
# Assay: ELISA, coated human 4-1BB-his 200 ng/well; antibody 3.33 µg/ml
row,absorbance at 450 nm,Binder
1,1,B1
2,0.433,B2
3,0.454,B4

# Target: T1, Mouse 4-1BB extracellular region …
# Assay: ELISA, coated mouse 4-1BB-his 200 ng/well; antibody 10.0 µg/ml
row,absorbance at 450 nm,Binder
1,0.31,B3
2,0.284,B6

# Target: T1, Mouse 4-1BB extracellular region …
# Assay: ELISA, coated mouse 4-1BB-his 200 ng/well; antibody 3.33 µg/ml
row,absorbance at 450 nm,Binder
1,0.231,B3
2,0.218,B6
